From article PMC5703909, “Bactofilin-mediated organization of the ParABS chromosome segregation system in Myxococcus xanthus” (Nature Communications, 2017)

T1: His6-ParA (M. xanthus, UniProt Q1CVJ3 1-283)
T1 construct: DNA partitioning ATPase ParA of Myxococcus xanthus; Only soluble with ATP, which restricted the analyses to the dimeric form; also called ParA·ATP; purified ParA; source: E. coli Rosetta(DE3)pLysS with pAH17, purified (HisTrap HP) in the presence of magnesium-ATP
T1 sequence (looked up): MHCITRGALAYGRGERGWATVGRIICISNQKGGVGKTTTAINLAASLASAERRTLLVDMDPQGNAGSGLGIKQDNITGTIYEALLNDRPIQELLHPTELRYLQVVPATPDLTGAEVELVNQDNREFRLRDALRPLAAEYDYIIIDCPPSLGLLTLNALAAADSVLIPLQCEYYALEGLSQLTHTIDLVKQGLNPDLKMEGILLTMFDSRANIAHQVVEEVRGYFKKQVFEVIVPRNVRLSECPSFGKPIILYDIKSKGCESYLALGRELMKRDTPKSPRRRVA

B1: His6-PadC_(Δ1-281) (domain or fragment, M. xanthus, UniProt Q1D3H3 282-489, looked up)
chain: PEPEQRLSGRVTTVLLPLEKLQDESAFKLRPEGDVSGLATDIARLGQLFPVDVRPAGEDRYQLVCGFRRVAALRFLKRDAVQARIHLRLSDEDALVMSLAEAIHATPVGPEVLEAKRDELEAQGRLSAAVRDMLEKALATEDTLAPEGVEEEIDADELAQEVAQRLGAINQDLSLLADVFAALDESRKAELLMQLRYSSELVTYLEGL
modifications: biotinylated with EZ-Link NHS-PEG4-Biotin where it was loaded on the sensor
notes: PadC (MXAN_4634) of Myxococcus xanthus lacking residues 1-281; holds the ParB-like nuclease (ParBC) domain; no cleavage of the tag is described; also called PadCΔN; N-terminally truncated variant of PadC; source: E. coli Rosetta(DE3)pLysS with pMO002, purified (HisTrap HP, MonoQ)

Tests used:
[1] = target: B1; assay: BLI; BLItz, streptavidin (SAX) sensors loaded with biotinylated BacPC, PadCΔN as analyte; 25 mM HEPES/KOH pH 7.6, 100 mM KCl, 10 mM MgSO4, 1 mM DTT, 10 µM BSA, 0.01% Tween; conditions: both partners purified
[2] = target: T1, His6-ParA; assay: BLI; BLItz, streptavidin (SAX) sensors loaded with biotinylated PadCΔN, ParA as analyte; BLItz binding buffer with 150 mM potassium glutamate, 5% glycerol and 10 mM ATP; conditions: both partners purified

Kd [1] [nM] | Kd [2] [nM] | Binder
340 | – | His6-BacP_(Δ1-115) (domain or fragment, M. xanthus, UniProt Q1D3H2 116-240, looked up, biotinylated with EZ-Link NHS-PEG4-Biotin for loading on the sensor, bactofilin BacP of Myxococcus xanthus lacking residues 1-115 (the C-terminal extension); no cleavage of the tag is described; also called BacPC; C-terminal fragment of BacP; source: E. coli Rosetta(DE3)pLysS with pIB154, purified (HisTrap HP)) DVEPGRLPAERPAVVRPTAVTRPTATPARPTIPAARPMPPPPPSRPTPPPPPARPSAPPAVTRPSAPITRPGLGGLGSKPLPPPPPTRVERAEPQAGQAGSAEPPTPVLVGAGAKKKVVVKKKTR
– | 900 | B1
